Results: publication PMC4287840

Key:
angiopoietin-2 (Ang2) [1] = biological target: T1, angiopoietin-2 (Ang2) (human, UniProt O15123 19-496); assay: bead-based fluorescence assay
angiopoietin-2 (Ang2) [2] = biological target: T1, angiopoietin-2 (Ang2); assay: ELONA sandwich
angiopoietin-2 (Ang2) [3] = biological target: T1, angiopoietin-2 (Ang2); assay: bead-based fluorescence assay; remark: listed apart in the source
angiopoietin-2 (Ang2) [4] = biological target: T1, angiopoietin-2 (Ang2); assay: bead-based fluorescence assay; remark: listed apart in the source

T1 sequence (O15123 19-496): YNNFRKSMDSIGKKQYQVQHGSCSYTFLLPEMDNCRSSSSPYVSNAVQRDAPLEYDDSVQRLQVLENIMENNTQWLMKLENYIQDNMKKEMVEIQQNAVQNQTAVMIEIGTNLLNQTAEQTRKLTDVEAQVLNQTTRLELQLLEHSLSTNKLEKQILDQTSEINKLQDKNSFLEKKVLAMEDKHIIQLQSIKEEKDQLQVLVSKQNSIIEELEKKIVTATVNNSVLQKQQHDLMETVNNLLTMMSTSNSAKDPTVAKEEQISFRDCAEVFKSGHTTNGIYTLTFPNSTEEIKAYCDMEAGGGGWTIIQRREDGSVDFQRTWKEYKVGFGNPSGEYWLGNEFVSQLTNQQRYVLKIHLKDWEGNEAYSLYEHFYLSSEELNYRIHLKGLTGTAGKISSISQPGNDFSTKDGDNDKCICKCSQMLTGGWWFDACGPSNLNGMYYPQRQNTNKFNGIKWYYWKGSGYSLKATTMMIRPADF

GGTGCCATTGGGGACTGCTCGGGATTGCGGACTTGGCATC (ssDNA) [ABA92]: binds (angiopoietin-2 (Ang2) [1]).

GGGTGCCATTGGGGACTGCTCGGGATTGCGGACTTGGCAT (ssDNA) [ABA109]: binds (angiopoietin-2 (Ang2) [1]).

TTTGGGGTGGTTGGGGGTTGTTGTTTTGGGGGTGGAGGGT (ssDNA) [ABA65]: binds (angiopoietin-2 (Ang2) [2]).

Binder TTTTTTTTTTTTTTTTTTTTTTTTT (ssDNA) [25T linker] has a Kd (angiopoietin-2 (Ang2) [3]) of 210 ± 49.4 nM.

For ACTTGTAGGGTTCGGCTGGTCAGGGTGTCCAAGTCTGTGG (ssDNA) [ABA1], the binding signal (angiopoietin-2 (Ang2) [4]) was ~210 fold higher Kd than ABA1-ABA65 (97 pM).
